The target in experiment [1] is CXCR4 (human) (UniProt P61073). The experiment in a line: competition of 125I SDF-1α on CEM-NKr cells.
The target of experiment [2] is T1, CXCR4 (human, UniProt P61073 1-352).
T1 construct: whole, on cells; also called the SDF-1 receptor expressed on CEM-NKr; the hallmark SDF-1 receptor
The experiment in a line: displacement of 125I SDF-1α on CEM-NKr cells, DisplaceMax panel. A general note: Displacement assays read how much labelled ligand stays bound in the presence of the test substance.

CXCR4 (human), sequence (P61073 whole entry): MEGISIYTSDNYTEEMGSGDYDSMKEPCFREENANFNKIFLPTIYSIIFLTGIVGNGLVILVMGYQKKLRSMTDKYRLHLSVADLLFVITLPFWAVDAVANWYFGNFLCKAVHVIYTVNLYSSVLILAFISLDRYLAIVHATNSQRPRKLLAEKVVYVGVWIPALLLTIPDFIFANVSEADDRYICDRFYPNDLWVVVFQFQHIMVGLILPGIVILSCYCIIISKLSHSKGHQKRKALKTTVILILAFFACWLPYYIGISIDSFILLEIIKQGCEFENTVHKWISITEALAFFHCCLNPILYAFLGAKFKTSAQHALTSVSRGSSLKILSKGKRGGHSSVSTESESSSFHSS
T1 sequence (P61073 whole entry): as above

For “SDF-1β (human) (from UniProt P48061 22-93) (ligand)”, the IC50 (usually the concentration that gives 50% inhibition) in experiment [1] is 1.5 nM. This lies in the single-digit nanomolar range.

B1: I-TAC (mouse) (ligand, UniProt Q9JHH5 22-100, looked up)
chain: FLMFKQGRCLCIGPGMKAVKMAEIEKASVIYPSNGCDKVEVIVTMKAHKRQRCLDPRSKQARLIMQAIEKKNFLRRQNM
notes: also called CXCL11
As for B1, the binding result in experiment [2] was “no binding”.

Source of the values: patent US20050214287A1 (published 2005).
